The source of these data is publication PMC10213629 (2023).

B1: CrcA (PA1677), His-tag removed (natural protein)
chain: MPHPLTLLQISGRGYPPAPLRQSTLLIIDAQEEYRSGALRLPGLDAAAAEIGVLVQAARASGTPIVHVRHLGIQGGLFDPQGPRGQFLPELQPEAGEKVVEKRLPNAFSGTELHDLLQNHGRLDLIVCGFMTHSSVSTTVRAAKDYGYRCTLADSACATRDIPTLNGGVLSAADLQRAEIAALGDNFAAIVAQARELL
B2: Crc (catabolite repression control protein), His-tag removed (natural protein)
chain: MRIISVNVNGIQAAAERGLLSWLQAQNADVICLQDTRASAFDLDDPSFQLDGYFLYACDAELPEQGGVALYSRLQPKAVISGLGFETADRYGRYLQADFDKVSIATLLLPSGQSGDESLNQKFKFMDDFTHYLSKQRRKRREYIYCGSLYVAHQKMDVKNWRECQQMPGFLAPERAWLDEVFGNLGYADALREVSREGDQFSWWPDSEQAEMLNLGWRFDYQVLTPGLRRFVRNAKLPRQPRFSQHAPLIVDYDWQLSI

For assay [1], the target named is Strep-CrcA (Strep-PA1677; catabolite repression control protein antagonist) (Pseudomonas aeruginosa PAO1). As to the kind of experiment: SEC-MALS; Strep-CrcA; experimental mass compared with the expected mass of a dimer.
Assay [2] concerns the target B1. In words: grating-coupled interferometry; CrcA immobilised (9.5 ng/mm^2); Crc 20 μM to 156.25 nM; ES-buffer, 25°C; equilibration curve analysis.
In assay [3] the target is B1. As to the kind of experiment: grating-coupled interferometry; CrcA immobilised by amine coupling (9.5 ng/mm^2); Crc 20 μM to 156.25 nM; ES-buffer, 25°C; heterogeneous ligand model.
Assay [4] addresses B2. In words: immobilized CrcA; kd1 heterogeneous ligand.
For assay [5], the target named is B2. In words: immobilized CrcA; kd2 heterogeneous ligand, second site.
In assay [6] the target is B2. As to the kind of experiment: immobilized CrcA; KD2 heterogeneous ligand, second site.
For assay [7], the target named is Crc (catabolite repression control protein), His-tag removed (Pseudomonas aeruginosa PAO1) (UniProt Q51380). As to the kind of experiment: grating-coupled interferometry; Crc immobilised (15 pg/mm^2); CrcA 20 μM to 156.25 nM; ES-buffer, 25°C; equilibration curve analysis.
The target is the same in assay [8]. As to the kind of experiment: grating-coupled interferometry; Crc immobilised by amine coupling (15 pg/mm^2); CrcA 20 μM to 156.25 nM; ES-buffer, 25°C; 1:1 kinetic fit.
Assay [9] concerns the target B1. As to the kind of experiment: immobilized Crc.
In assay [10] the target is T1, PAO1 Hfq protein, purified (Pseudomonas aeruginosa PAO1, UniProt Q9HUM0 1-82).
T1 chain: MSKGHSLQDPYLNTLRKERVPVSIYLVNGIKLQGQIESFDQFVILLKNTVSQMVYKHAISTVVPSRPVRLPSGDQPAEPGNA
As to the kind of experiment: Hfq in complex with amiE6ARN RNA; kd1 heterogeneous ligand.

Assay [11] concerns the target T1, PAO1 Hfq protein, purified. As to the kind of experiment: Hfq in complex with amiE6ARN RNA; KD1 heterogeneous ligand.
For assay [12], the target named is T1, PAO1 Hfq protein, purified. In words: Hfq in complex with amiE6ARN RNA; kd2 heterogeneous ligand, second site.

“Strep-CrcA (Strep-PA1677; catabolite repression control protein antagonist) (natural protein)”: in assay [1], the stoichiometry N was found to be 2.
Turning to “Crc (catabolite repression control protein), His-tag removed (from UniProt Q51380 1-259) (natural protein)”, the Kd in assay [2] stood at 7.14 µM. Moreover, the KD1 in assay [3] was found to be 8.35 µM.
Regarding B1, the koff in assay [4] was 0.653 s⁻¹; in [5], 0.0454 s⁻¹. Also, the results for the Kd in assay [6], in [7] and in assay [8] were 3.93 µM, 12 µM and 11 µM, respectively.
On to B2, for which the koff in assay [9] stood at 2.45 s⁻¹; in assay [10], 0.374 s⁻¹; in assay [12], 0.00786 s⁻¹. Also, the Kd in [11] was found to be 0.402 µM.
